# Test results as given in patent publication US20120201826A1 (NOV IMMUNE S A, published 2012).
# Positions count from the first letter of the chain named.
# T1: recombinant human RANTES (huRANTES, Peprotech) (human, UniProt P13501 24-91)
# T1 sequence: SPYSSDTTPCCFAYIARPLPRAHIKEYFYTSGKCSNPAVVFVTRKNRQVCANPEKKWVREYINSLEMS
# T2: NusA-huRANTES fusion protein (human, UniProt P13501 24-91, biotinylated in vivo at the AviTag)
# T2 construct: GenBank M21121 is printed for the human RANTES gene; also called NusA-Rantes; not shown: NusA fusion partner of expression plasmid pET43 (Novagen); Factor X protease cleavage site at the C-terminus of NusA; AviTag biotinylation site at the C-terminus of the chemokine
# T2 sequence: T1 sequence
# T3: moIP-10 (mouse, UniProt P17515)
# T3 construct: coated protein of the ELISA panel; also called mouse IP-10
# T3 sequence (chemokine, looked up): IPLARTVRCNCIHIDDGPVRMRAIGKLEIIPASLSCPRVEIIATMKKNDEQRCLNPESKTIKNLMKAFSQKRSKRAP
# T4: ratIP-10 (rat, UniProt P48973)
# T4 construct: coated protein of the ELISA panel
# T4 sequence (chemokine, looked up): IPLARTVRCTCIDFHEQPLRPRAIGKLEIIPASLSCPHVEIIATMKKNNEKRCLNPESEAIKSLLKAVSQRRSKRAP
# T5: NusA-cynoRANTES fusion protein (cynomolgus monkey, UniProt Q8HYQ1 24-91 (rhesus entry), biotinylated in vivo at the AviTag)
# T5 construct: also called cynomolgus RANTES; not shown: NusA fusion partner of expression plasmid pET43 (Novagen); Factor X protease cleavage site at the C-terminus of NusA; AviTag biotinylation site at the C-terminus of the chemokine
# T5 sequence: T1 sequence with Y3H, S4A
# T6: native human RANTES produced by THP1 cells (human, UniProt P13501 24-91)
# T6 sequence: T1 sequence
# B1: 1E4 antibody, IgG1 format (antibody, V domains shown)
# VH: QVQLVQSGAEVKKPGASVKVSCKVSGYTLTEFAMHWVRQAPGKGLEWMGGFVPEDGETIYAQKFQGRVTMTEDTSTDTAYMELSSLRSEDTAVYYCATDPLYEGSFSVWGQGTTVTVSS
# VL: SYVLTQPPSVSVAPGQTARITCGGNNIESKSVHWYQQKPGQAPVLVVYDDSDRPSGIPERFSGSNSGNTATLTISRVEAGDEADYYCQVWDSNTDHWVFGGGTKLTVLG
# notes: also called antibody 1E4 purified from CHO supernatant
# What was measured:
# [1] = target: T7, rat RANTES, expressed as fusion protein (ELISA panel) (rat, UniProt P30882 24-91 (mouse entry), Biotinylated in vivo at the AviTag, which is not in the letters); experiment: ELISA, chemokine coated at 5 ug/ml, concentration range of 1E4
# T7 construct: not shown: NusA fusion partner with Factor X site, and the C-terminal AviTag
# [2] = target: T1, recombinant human RANTES (huRANTES, …); experiment: cell-based or functional assay
# [3] = target: T2, NusA-huRANTES fusion protein; experiment: ELISA: chemokine fusion protein coated at 5 µg/ml, titration of 1E4, anti-human Fc-gamma-HRP and fluorescent substrate
# moIP-10 = target: T3, moIP-10; experiment: as above
# ratIP-10 = target: T4, ratIP-10; experiment: as above
# [4] = target: T8, mouse RANTES, expressed as fusion protein (ELISA panel) (mouse, UniProt P30882 24-91, Biotinylated in vivo at the AviTag, which is not in the letters); experiment: as above
# T8 construct: not shown: NusA fusion partner with Factor X site, and the C-terminal AviTag
# [5] = target: T5, NusA-cynoRANTES fusion protein; experiment: as above
# [6] = target: T2, NusA-huRANTES fusion protein; experiment: SPR (Biacore 2000), 1E4 captured on anti-human IgG, chemokine as analyte, 25 C, 1:1 Langmuir fit
# Procedure: (§1) 433 RU (response unit) of a donkey anti-human IgG polyclonal antibody were immobilized by EDC/NHS chemistry on a C1 Biacore chip. […] The surface was regenerated after each cycle by injection of 10 mM glycine pH=2 at 30 μL/min, for 60s followed by 1 min. of stabilization time in HBS-EP buffer.
# (§2) All proteins were diluted in the running buffer HBS-EP buffer (Biacore AB, Uppsala, Sweden). Injection was performed at 75 μl/min for 3 min. followed by 15 min. of dissociation time and the temperature was set at 25° C.
# [7] = target: T1, recombinant human RANTES (huRANTES, …); experiment: as above
# Procedure: as §1, §2
# [8] = target: T5, NusA-cynoRANTES fusion protein; experiment: as above
# Procedure: as §1, §2
# [9] = target: T6, native human RANTES produced by THP1 …; experiment: cell-based or functional assay
# [10] = target: T6, native human RANTES produced by THP1 …; experiment: cell-based or functional assay; remark: listed apart in the source
# [11] = target: T1, recombinant human RANTES (huRANTES, …); experiment: cell-based or functional assay; remark: listed apart in the source
# [12] = target: T9, mouse RANTES, biotinylated in vivo (Example 14) (mouse, UniProt P30882 24-91, biotinylated in vivo at the AviTag); experiment: ELISA: biotinylated chemokine captured on Streptawell plate, 1E4 at 1 µg/ml, goat anti-human IgG Fc-gamma-HRP, TMB, OD450
# T9 construct: Captured on streptavidin plates; not shown: AviTag biotinylation site at the C-terminus
# Procedure: Three mutants of mouse RANTES were generated by site directed mutagenesis in order to introduce the human residues at those positions: [S16A/L17R/A18P]; [S32G/L37P] and [Q59R/Y64S]. […] These variant of mouse RANTES were captured in streptavidin coated plates (Streptawell, Roche). […] The plate was washed and incubated with a goat anti-human IgG Fcγ-specific antibody coupled to horse radish peroxidase (Jackson). […] The plates were read at 450 nm.
# [13] = target: T1, recombinant human RANTES (huRANTES, …); experiment: cell-based or functional assay; remark: listed apart in the source
# T7 sequence (P30882 24-91 limits assumed): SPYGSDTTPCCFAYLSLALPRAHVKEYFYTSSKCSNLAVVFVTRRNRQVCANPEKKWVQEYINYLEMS
# T8 sequence (P30882 24-91 limits assumed): as above
# T9 sequence (P30882 24-91): as the sequence (P30882 24-91 limits assumed) above
binder,measurement,setting,value
B1,binding result,[1],no binding
same,Calcium flux IC50 (nM); L1.2-hCCR1; 25 nM huRANTES,[2],4.9 nM
same,Calcium flux IC50 (nM); L1.2-hCCR3; 25 nM huRANTES,[2],4.46 nM
same,Calcium flux IC50 (nM); L1.2-hCCR5; 4 nM huRANTES,[2],0.54 nM
same,EC50 (read off the curve),[3],~0.01 µg/mL
same,binding result,moIP-10,no binding (tested: about 3 µg/ml)
same,binding result,ratIP-10,no binding (tested: about 3 µg/ml)
same,binding result,[4],no binding (tested: about 3 µg/ml)
same,EC50 (read off the curve),[5],~0.01 µg/mL
same,Kd,[6],447 pM
same,Kd,[7],455 pM
same,Kd,[8],2240 pM
same,"Chemotaxis IC50 (nM), native huRANTES from THP1 cells; L1.2-hCCR5 cells; IgG1 format",[9],0.028 nM
same,Chemotaxis IC50 (nM); L1.2-hCCR5; 1 nM native huRANTES,[10],0.09 nM
same,Chemotaxis IC50 (nM); L1.2-hCCR1; 2 nM huRANTES,[11],0.46 nM
same,Chemotaxis IC50 (nM); L1.2-hCCR3; 10 nM huRANTES,[11],3.33 nM
same,Chemotaxis IC50 (nM); L1.2-hCCR5; 1 nM huRANTES,[11],0.2 nM
same,binding result,[12],no binding (tested: 1 µg/ml)
same,"Chemotaxis IC50 (nM), 0.2 nM huRANTES; L1.2-hCCR5 cells; IgG1 format",[13],0.034 nM
same,"Chemotaxis IC50 (nM), 1 nM huRANTES; L1.2-hCCR5 cells; IgG1 format",[13],0.46 nM
